The text below walks through data of patent publication US20160130552A1.

This assay deals with RGD-recognizing receptors of monocytes. Description: cell-based or functional assay.

Regarding RGDS [Small RGD peptides containing the amino-acid sequence Arg-Gly-Asp-Ser], the decrease in long-duration monocyte-platelet interactions under flow is 44%.
